Here are results for one substance from article PMC4114240.

Several values for one entry are separate records, joined by “and”; a condition that tells them apart may be missing. Equal entries are not always repeated.

The test addresses Xanthomonas campestris pv. campestris RpfB with an N-terminal hexahistidine tag (Xanthomonas campestris pv. campestris 8004). Briefly: SEC.

On to “Xanthomonas campestris pv. campestris RpfB with an N-terminal hexahistidine tag (enzyme)”, for which the stoichiometry N (commonly a count of units in the complex or per binding partner) was 3 and 6.
